Assay [1] addresses T1, cyno Kv1.3 (Macaca fascicularis, UniProt P22001 1-575 (human entry)).
T1 chain: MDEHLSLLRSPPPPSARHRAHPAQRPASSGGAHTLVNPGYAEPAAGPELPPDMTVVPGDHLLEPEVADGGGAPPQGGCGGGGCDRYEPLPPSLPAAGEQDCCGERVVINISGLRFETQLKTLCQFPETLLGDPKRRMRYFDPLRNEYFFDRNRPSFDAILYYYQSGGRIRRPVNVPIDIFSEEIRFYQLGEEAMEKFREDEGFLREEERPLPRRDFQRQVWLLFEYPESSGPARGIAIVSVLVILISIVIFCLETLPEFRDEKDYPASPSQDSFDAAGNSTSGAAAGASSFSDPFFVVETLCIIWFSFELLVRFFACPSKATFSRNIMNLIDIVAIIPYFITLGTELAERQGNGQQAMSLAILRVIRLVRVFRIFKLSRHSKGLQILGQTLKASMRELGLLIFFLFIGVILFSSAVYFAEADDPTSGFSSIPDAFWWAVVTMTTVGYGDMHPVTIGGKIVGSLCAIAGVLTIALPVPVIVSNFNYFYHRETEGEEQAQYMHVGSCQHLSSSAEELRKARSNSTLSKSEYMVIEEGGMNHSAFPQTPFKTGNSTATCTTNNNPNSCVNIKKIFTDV

Assay [2] deals with T2, rat Kv1.3 (Rattus norvegicus, UniProt P15384 1-525).
T2 construct: Expressed on CHO cells
Nature of the assay: FACS, CHO cells expressing rat Kv1.3, with 50 µM HSA. (A flow cytometer gives signals particle by particle.)

The target in assay [3] is T1, cyno Kv1.3. Nature of the assay: FACS, CHO cells expressing cyno Kv1.3, with 50 µM HSA.
For assay [4], the target named is T3, human Kv1.3 (Homo sapiens, UniProt P22001 1-575). Put plainly: cell-based or functional assay.
The target of assay [5] is T2, rat Kv1.3. Put plainly: FACS, CHO cells expressing rat Kv1.3.
The target in assay [6] is T3, human Kv1.3. Nature of the assay: FACS, CHO cells expressing human Kv1.3.
Assay [7] addresses T1, cyno Kv1.3. Nature of the assay: FACS, CHO cells expressing cyno Kv1.3.
Assay [8] addresses T3, human Kv1.3. Nature of the assay: cell-based or functional assay. The source holds these as a separate data set.
In assay [9] the target is T1, cyno Kv1.3. Nature of the assay: FACS, CHO cells expressing cyno Kv1.3.
In assay [10] the target is T2, rat Kv1.3. Put plainly: FACS, CHO cells expressing rat Kv1.3. This is another data set of the same source.
Assay [11] concerns the target T1, cyno Kv1.3.
Assay [12] has as its target T3, human Kv1.3. Put plainly: cell-based or functional assay. This is another data set of the same source.
Assay [13] has as its target T3, human Kv1.3. Put plainly: cell-based or functional assay. The source holds these as a separate data set.
For assay [14], the target named is T2, rat Kv1.3. Put plainly: FACS, CHO cells expressing rat Kv1.3. This is another data set of the same source.
Assay [15] has as its target T3, human Kv1.3.
For assay [16], the target named is T3, human Kv1.3. Put plainly: FACS, CHO cells expressing human Kv1.3. This is another data set of the same source.
The target in assay [17] is T1, cyno Kv1.3. Put plainly: FACS, CHO cells expressing cyno Kv1.3.
Assay [18] concerns the target T3, human Kv1.3. Put plainly: cell-based or functional assay. This is another data set of the same source.
Assay [19] has as its target T3, human Kv1.3. Nature of the assay: cell-based or functional assay. The source holds these as a separate data set.
Assay [20] deals with T3, human Kv1.3. Nature of the assay: cell-based or functional assay. This is another data set of the same source.

Like-named read-outs stand apart in the source and are kept apart here. Bounds are passed on as bounds.

T3 sequence (P22001 whole entry): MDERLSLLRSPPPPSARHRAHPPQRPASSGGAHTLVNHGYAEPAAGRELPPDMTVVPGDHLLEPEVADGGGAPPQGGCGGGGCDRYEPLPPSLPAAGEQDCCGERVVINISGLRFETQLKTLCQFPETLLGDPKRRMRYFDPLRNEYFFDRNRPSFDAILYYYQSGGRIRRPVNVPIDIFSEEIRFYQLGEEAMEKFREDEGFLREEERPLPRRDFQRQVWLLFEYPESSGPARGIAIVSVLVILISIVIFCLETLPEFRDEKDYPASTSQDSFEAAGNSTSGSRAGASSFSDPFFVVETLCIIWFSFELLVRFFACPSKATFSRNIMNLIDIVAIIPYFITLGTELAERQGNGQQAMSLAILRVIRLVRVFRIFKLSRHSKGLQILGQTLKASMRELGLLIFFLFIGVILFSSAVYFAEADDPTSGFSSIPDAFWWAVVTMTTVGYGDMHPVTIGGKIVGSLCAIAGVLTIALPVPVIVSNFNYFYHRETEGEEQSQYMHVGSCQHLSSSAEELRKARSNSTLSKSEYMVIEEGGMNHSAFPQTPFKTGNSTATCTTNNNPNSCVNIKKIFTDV

B1: A019400013 (VHH)
chain: EVQLVESGGGLVQAGGSLGLSCSASGLLFSRNSAGWYRQAPGKQREFVARIRMGGSINYADTVKGRFTISRDNAKNTVYLQMNSLKPEDTAVYYCSSWRTGFYEYWGQGTLVTVSSGGGGSGGGGSGGGGSGGGGSGGGGSGGGGSGGGGSEVQLVESGGGLVQAGGSLGLSCSASGLLFSRNSAGWYRQAPGKQREFVARIRMGGSINYADTVKGRFTISRDNAKNTVYLQMNSLKPEDTAVYYCSSWRTGFYEYWGQGTLVTVSS
notes: Bivalent Nanobody construct (family 12 - family 12), without Alb11; also called A0194009G09-35GS-A0194009G09
With B1, in the assay with cyno Kv1.3 [1], inhibition was half-maximal at 0.66 nM (IC50). Besides, the half-maximal effective concentration (EC50) was found to be 0.85 nM with rat Kv1.3 [2]; 0.45 nM with cyno Kv1.3 [3]; 0.49 nM with rat Kv1.3 [5]; 0.32 nM in the assay with human Kv1.3 [6]; 0.33 nM in the assay with cyno Kv1.3 [7]; 0.24 nM with cyno Kv1.3 [9]. In the assay with rat Kv1.3 [10], this molecule showed an EC50 of 0.704 nM. The “IC50, CD25 read out, T cell activation assay” value in the assay with human Kv1.3 [4] was 0.12 nM. Besides, the “IC50, CD25 read out, T cell activation assay, with 10 µM HSA” value with human Kv1.3 [4] worked out at 0.037 nM. The “IC50, IFNγ read out, T cell activation assay” value with human Kv1.3 [4] came out at 0.083 nM. Moreover, the “IC50, IFNγ read out, T cell activation assay, with 10 µM HSA” value in the assay with human Kv1.3 [4] came out at 0.031 nM. Further, the “IC50, CD25 read out, CCR7-CD45RA- T cells stimulated with anti-CD3” value (shortened to “IC50, CD25 read out … with anti-CD3”) with human Kv1.3 [8] amounted to 0.12 nM. Further, the “IC50, IFNγ read out, CCR7-CD45RA- T cells stimulated with anti-CD3” value (shortened to “IC50, IFNγ read out … with anti-CD3”) with human Kv1.3 [8] was 0.083 nM.

B2: A0194009G09 (VHH)
VHH: EVQLVESGGGLVQAGGSLGLSCSASGLLFSRNSAGWYRQAPGKQREFVARIRMGGSINYADTVKGRFTISRDNAKNTVYLQMNSLKPEDTAVYYCSSWRTGFYEYWGQGTLVTVSS
notes: Monovalent Nanobody of family 12; not shown: triple Flag, His6 tag
With B2, inhibition in the assay with cyno Kv1.3 [11] was half-maximal at 9.8 nM (IC50). In the assay with human Kv1.3 [12], the “Average IC50, Kv1.3 current, IonFlux automated patch clamp, HEK293H cells” value (shortened to “Average IC50, Kv1.3 current … HEK293H cells”) is 8.2 nM. Besides, the “Average IC50, Kv1.3 current, IonWorks perforated patch clamp, CHL cells” value (“Average IC50, Kv1.3 current … CHL cells” for short) in the assay with human Kv1.3 [13] was determined as 37 nM. Also, the results for the EC50 in the assay with rat Kv1.3 [14], with human Kv1.3 [16] and in the assay with cyno Kv1.3 [17] were 240 nM, 7.9 nM and 11 nM, respectively. The “IC50 (read off the curve)” value in the assay with human Kv1.3 [15] was approximately 10 nM. Further, the “IC50, CD25 read out … with anti-CD3” value with human Kv1.3 [18] turned out to be 62 nM. Also, the “IC50, IFNγ read out … with anti-CD3” value in the assay with human Kv1.3 [18] was determined as 47 nM.

B3: A019400012 (other)
chain: EVQLVESGGGLVQAGGSLGLSCSASGLLFSRNSAGWYRQAPGKQREFVARIRMGGSINYADTVKGRFTISRDNAKNTVYLQMNSLKPEDTAVYYCSSWRTGFYEYWGQGTLVTVSSGGGGSGGGGSGGGGSGGGGSGGGGSGGGGSGGGGSEVQLVESGGGLVQAGGSLSLSCTASGGTFRNFGMGWFRQAQGKEREFVAAISRTGGHTYYQDSVKGRFTISKDNAKNILSLQMNSLKPEDTAVYYCAARFRFGDGTYYYQRAFYDFWGQGTLVTVSS
B3 came in with an IC50 with cyno Kv1.3 [1] of 0.5 nM. Besides, in the assay with human Kv1.3 [8], the “IC50, CD25 read out … with anti-CD3” value was 0.31 nM and the “IC50, IFNγ read out … with anti-CD3” value was 0.31 nM. For the same molecule, the “Average IC50, Kv1.3 current … CHL cells” value with human Kv1.3 [19] stood at 4.2 nM. Besides, in the assay with human Kv1.3 [20], the “Average IC50, Kv1.3 current … HEK293H cells” value came out at 4.2 nM.

B4: A019400014 (other)
chain: EVQLVESGGGLVQAGGSLSLSCTASGGTFRNFGMGWFRQAQGKEREFVAAISRTGGHTYYQDSVKGRFTISKDNAKNILSLQMNSLKPEDTAVYYCAARFRFGDGTYYYQRAFYDFWGQGTLVTVSSGGGGSGGGGSGGGGSGGGGSGGGGSGGGGSGGGGSEVQLVESGGGLVQAGGSLGLSCSASGLLFSRNSAGWYRQAPGKQREFVARIRMGGSINYADTVKGRFTISRDNAKNTVYLQMNSLKPEDTAVYYCSSWRTGFYEYWGQGTLVTVSS
notes: Biparatopic Nanobody construct (family 1 - family 12); also called A019400003-35GS-A0194009G09; A019400011
B4 had an IC50 with cyno Kv1.3 [1] of 0.61 nM. For the same molecule, the results for the EC50 in the assay with rat Kv1.3 [5], with human Kv1.3 [6] and with cyno Kv1.3 [9] were 0.74 nM, 1.1 nM and 0.41 nM, respectively. The “IC50, CD25 read out … with anti-CD3” value in the assay with human Kv1.3 [8] was found to be 0.11 nM. Moreover, in the assay with human Kv1.3 [8], the “IC50, IFNγ read out … with anti-CD3” value turned out to be 0.32 nM. Besides, the “Average IC50, Kv1.3 current … CHL cells” value with human Kv1.3 [19] turned out to be 14 nM. For the same molecule, the “Average IC50, Kv1.3 current … HEK293H cells” value with human Kv1.3 [20] was 14 nM.

B5: A019400003 (VHH)
VHH: EVQLVESGGGLVQAGGSLSLSCTASGGTFRNFGMGWFRQAQGKEREFVAAISRTGGHTYYQDSVKGRFTISKDNAKNILSLQMNSLKPEDTAVYYCAARFRFGDGTYYYQRAFYDFWGQGTQVTVSS
notes: Monovalent Nanobody of family 1, purified from E. coli TG1; not shown: triple Flag, His6 tag
In the assay with cyno Kv1.3 [11], B5 returned an IC50 of 1.3 nM. Besides, the “Average IC50, Kv1.3 current … CHL cells” value in the assay with human Kv1.3 [13] is more than 1000 nM. Moreover, the values for the EC50 with rat Kv1.3 [14], with human Kv1.3 [16] and in the assay with cyno Kv1.3 [17] were 380 nM, 6.2 nM and 2.5 nM, respectively. The “IC50 (read off the curve)” value in the assay with human Kv1.3 [15] was approximately 30 nM.

What is called IC50 is the point on the concentration scale where inhibition reaches its midpoint. What is called EC50 is the concentration at which the effect is half-maximal. Higher therefore signals weaker potency.

These data come from patent US20170137512A1 (Ablynx, published 2017).
